Measurements from patent US20160361434A1 (COVALAB, published 2016).
Where no end group is shown, it is not given here.

B1: BEST4 (peptide)
peptide: WPAQR
modifications: also: biotinylated, position not given here
B2: bSY8Q6 (peptide)
peptide: SPLKHQEY
modifications: also: biotin tag, position not given here
B3: bPH6Q4 (peptide)
peptide: PLVQSH
modifications: also: biotin tag, position not given here
B4: BEST2 (peptide)
peptide: YEAQK
modifications: also: biotinylated, position not given here
B5: bWH8Q7 (peptide)
peptide: WPDVYSQH
modifications: also: biotin tag, position not given here
B6: BEST1 (peptide)
peptide: YEIQR
modifications: also: biotinylated, position not given here
B7: bFE5Q4 (peptide)
peptide: FWIQE
modifications: also: biotin tag, position not given here
B8: bHH12Q11 (peptide)
peptide: HDLMWPDVYSQH
modifications: also: biotin tag, position not given here
B9: bDH6Q5 (peptide)
peptide: DVYSQH
modifications: also: biotin tag, position not given here
B10: BEST3 (peptide)
peptide: YEAQR
modifications: also: biotinylated, position not given here
B11: bLN11Q8-10 (peptide)
peptide: LLTLPSVQEQN
modifications: also: biotin tag, position not given here

Target: T1, Recombinant microbial transglutaminase (mTG) (Streptoverticillium mobaraense, UniProt P81453 77-407)
T1 sequence (looked up): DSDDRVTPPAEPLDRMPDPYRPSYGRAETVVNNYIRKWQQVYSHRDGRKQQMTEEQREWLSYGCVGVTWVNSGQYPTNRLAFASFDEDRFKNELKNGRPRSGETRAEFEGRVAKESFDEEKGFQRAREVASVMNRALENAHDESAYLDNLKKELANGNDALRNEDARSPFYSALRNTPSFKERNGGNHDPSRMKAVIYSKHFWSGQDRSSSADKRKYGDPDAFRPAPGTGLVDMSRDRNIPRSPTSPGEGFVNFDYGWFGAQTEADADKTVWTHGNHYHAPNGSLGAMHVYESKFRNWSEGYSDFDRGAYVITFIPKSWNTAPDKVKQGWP
Experiment: cell-based or functional assay

Binder	Kmapp [µM]
B1	0.225
B2	> 50
B3	14.8
B4	0.114
B5	11.4
B6	0.086
B7	5
B8	3.08
B9	33.1
B10	0.08
B11	172
